Laboratory results: PMC8565321

Biological target: BLM (UniProt P54132)
Experiment: co-IP and western blot
Details: reference: wild type USP37; sites S114

Substance: USP37 (from UniProt Q86T82) S114A
- binding against the reference: weaker
